Holding throughout (test): cross-linking
Assay [1] has as its target VcINDY Q86C S95C (dimer interface cysteine mutant in the cysteine-free background) (Vibrio cholerae) (UniProt Q9KNE0).
Assay [2] addresses VcINDY K316C (dimer interface cysteine mutant in the cysteine-free background) (Vibrio cholerae) (UniProt Q9KNE0).
Assay [3] has as its target VcINDY N90C (dimer interface cysteine mutant in the cysteine-free background) (Vibrio cholerae) (UniProt Q9KNE0).
For assay [4], the target named is VcINDY V68C S304C (dimer interface cysteine mutant in the cysteine-free background) (Vibrio cholerae) (UniProt Q9KNE0).

Consider “VcINDY Q86C S95C (dimer interface cysteine mutant in the cysteine-free background) (from UniProt Q9KNE0 14-462) (natural protein)”, for which, in assay [1], the stoichiometry N (in general, a count of units in the complex or per binding partner) was 2.
In assay [2], “VcINDY K316C (dimer interface cysteine mutant in the cysteine-free background) (from UniProt Q9KNE0 14-462) (natural protein)” showed a stoichiometry N of 2.
Consider “VcINDY N90C (dimer interface cysteine mutant in the cysteine-free background) (from UniProt Q9KNE0 14-462) (natural protein)”, for which the stoichiometry N in assay [3] came out at 2.
With “VcINDY V68C S304C (dimer interface cysteine mutant in the cysteine-free background) (from UniProt Q9KNE0 14-462) (natural protein)”, in assay [4], the stoichiometry N stood at 2.

(Values after publication PMC5215794.)
